Results on one substance are retold here after paper PMC6893399.

Data set [1] is described as follows: total CRMP2 western blot, brain lysate. Particulars: glycan lost; control: wild-type mice.
Data set [2] in a line: histology, lateral and third ventricles. Conditions: glycan lost; control: wild-type littermates.
Data set [3] in a line: maximum speed, NOR test phase. Particulars: glycan lost; control: wild-type littermates.
Data set [4] is described as follows: P509/514-CRMP2 antibody western blot, brain lysate. Conditions: glycan lost; control: wild-type mice.
A short description of data set [5]: histology, four points along cortex. Particulars: glycan lost; control: wild-type littermates.
Data set [6] is described as follows: distance travelled, NOR test phase. Particulars: glycan lost; control: wild-type littermates.
Another data set in a line: open-field test. Particulars: glycan lost; control: wild-type littermates.
Data set [7] is described as follows: spontaneous alternation, enclosed plus maze. Conditions: glycan lost; control: wild-type littermates.
Data set [8] is described as follows: 3F4 (P509/514/518/522) antibody western blot, brain lysate. Particulars: glycan lost; control: wild-type mice.

As to CRMP2: Crmp2S517A, the expression_or_secretion entry in data set [1] is reported as “no change”. Besides, the “other: brain ventricular volume, other: volume” value in data set [2] is recorded as “no change, 4.160 ± 1.252 vs 3.592 ± 1.155”. The “other: locomotion during NOR test phase, other: speed” value in data set [3] is on record as “decreases, 0.124 ± 0.017 vs 0.145 ± 0.027”. Also, the “other: CRMP2 phosphorylation at GSK3β sites” value in data set [4] and in data set [8] was “no change” each time. Moreover, the “other: cortical thickness, other: thickness” value in data set [5] is “no change, 1127 ± 93.24 vs 1197 ± 175.4”. Further, the “other: locomotion during NOR test phase, other: distance” value in [6] is given as “decreases, 9.4 ± 2.0 vs 12.8 ± 3.4”. For the same substance, the “other: anxiety and locomotor activity” value in the data set “open-field test” is “no change”. In [7], the “other: spatial working memory” value is listed as “no change”.
